From paper PMC12371180, “Redox regulation of LSD1/CATALASE 2 phase separation condensates controls location and functions” (The New Phytologist, 2025) come the findings set out here.

In assay [1] the target is catalase 2 (CAT2), recombinant Arabidopsis thaliana, full-length (Arabidopsis thaliana) (UniProt P25819).
Assay [2] concerns the target T1, PEX5-CAT2 complex (Atto-488-labelled CAT2 saturated with PEX5) (Arabidopsis thaliana, UniProt P25819 1-492; Q9FMA3 1-728, labelled with Atto-488 (protein to dye 1:1)).
T1 construct: catalase 2 (CAT2), Arabidopsis thaliana, full-length recombinant protein; as the chain of m2; PEX5, peroxisomal PTS1 import receptor, Arabidopsis thaliana, full-length recombinant protein; as the chain of m3
T1 sequence (looked up) 1: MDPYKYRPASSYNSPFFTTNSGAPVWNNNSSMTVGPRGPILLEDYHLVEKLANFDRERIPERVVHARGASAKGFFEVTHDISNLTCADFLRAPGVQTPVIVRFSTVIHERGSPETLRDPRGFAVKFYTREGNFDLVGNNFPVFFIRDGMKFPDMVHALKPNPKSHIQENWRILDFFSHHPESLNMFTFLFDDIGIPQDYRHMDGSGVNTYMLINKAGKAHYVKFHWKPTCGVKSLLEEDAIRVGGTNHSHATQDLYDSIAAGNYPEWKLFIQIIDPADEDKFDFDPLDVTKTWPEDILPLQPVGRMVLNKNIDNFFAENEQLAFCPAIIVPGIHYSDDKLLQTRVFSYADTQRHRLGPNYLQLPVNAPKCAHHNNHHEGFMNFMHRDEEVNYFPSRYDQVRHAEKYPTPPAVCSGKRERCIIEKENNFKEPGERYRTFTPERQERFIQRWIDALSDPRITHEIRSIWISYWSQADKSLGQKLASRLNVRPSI
T1 sequence (looked up) 2: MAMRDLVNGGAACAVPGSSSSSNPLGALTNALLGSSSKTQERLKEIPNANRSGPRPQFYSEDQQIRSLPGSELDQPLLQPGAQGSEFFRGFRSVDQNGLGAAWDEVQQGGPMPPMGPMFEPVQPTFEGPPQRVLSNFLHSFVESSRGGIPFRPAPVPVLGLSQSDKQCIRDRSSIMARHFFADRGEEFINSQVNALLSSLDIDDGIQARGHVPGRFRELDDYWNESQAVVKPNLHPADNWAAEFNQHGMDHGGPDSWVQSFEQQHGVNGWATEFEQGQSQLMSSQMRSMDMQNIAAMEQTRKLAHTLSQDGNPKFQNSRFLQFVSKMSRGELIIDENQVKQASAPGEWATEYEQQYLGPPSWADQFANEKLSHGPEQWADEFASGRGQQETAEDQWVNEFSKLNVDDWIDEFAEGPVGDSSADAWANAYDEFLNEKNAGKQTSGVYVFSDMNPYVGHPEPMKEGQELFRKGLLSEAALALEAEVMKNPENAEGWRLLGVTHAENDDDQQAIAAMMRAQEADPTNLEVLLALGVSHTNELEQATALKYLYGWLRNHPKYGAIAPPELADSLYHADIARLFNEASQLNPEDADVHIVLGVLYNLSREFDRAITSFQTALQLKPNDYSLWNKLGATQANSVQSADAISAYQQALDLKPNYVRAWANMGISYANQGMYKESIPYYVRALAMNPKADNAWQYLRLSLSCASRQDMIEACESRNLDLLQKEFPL
Kind of assay: MST; Atto-488-labelled CAT2 saturated with PEX5 (10-fold above the affinity value) before titration of LSD1; 25°C, 20 mM HEPES pH 7.5, 20 mM NaCl, 0.05% Tween 20. The note with it: both partners purified.

In assay [3] the target is T2, peroxisome import receptor PEX5, recombinant Arabidopsis thaliana, full-length (Arabidopsis thaliana, UniProt Q9FMA3 1-728, unlabelled in MST; labelled with Atto-647 in the condensate imaging).
T2 construct: PEX5, peroxisomal PTS1 import receptor, Arabidopsis thaliana, full-length recombinant protein; cloning not described; The cloning of the PEX5 construct is not described in the methods
T2 sequence (looked up): T1 sequence (looked up) 2
Kind of assay: MST; 100 nM Atto-488-labelled CAT2, unlabelled partner serially diluted; 25°C, 20 mM HEPES pH 7.5, 20 mM NaCl, 0.05% Tween 20; Monolith NT.115. The note with it: both partners purified.

As usually defined, the Kd is the equilibrium constant for the complex coming apart.

B1: LESION SIMULATING DISEASE1 (LSD1), recombinant Arabidopsis thaliana, full-length (natural protein, UniProt P94077-2 1-184, looked up)
chain: MQDQLVCHGCRNLLMYPRGASNVRCALCNTINMVPPPPPPHDMAHIICGGCRTMLMYTRGASSVRCSCCQTTNLVPAHSNQVAHAPSSQVAQINCGHCRTTLMYPYGASSVKCAVCQFVTNVNMSNGRVPLPTNRPNGTACPPSTSTSTPPSQTQTVVVENPMSVDESGKLVSNVVVGVTTDKK
modifications: unlabelled when titrated in MST; labelled with Atto-550 in the condensate imaging
notes: LSD1 (LESION SIMULATING DISEASE1), Arabidopsis thaliana, full-length, cloned into pET28b with NdeI and NotI; pET28b with NdeI cloning would usually add an N-terminal His tag (surmise; source: dialysed)
Consider B1, for which the catalase activity (change of 240 nm absorbance in 30 mM H2O2) of 10 μM CAT2 mixed with 10 μM LSD1 to form LSD1-CAT2 condensates, against CAT2 alone in assay [1] was 2.5 fold. In assay [2], the equilibrium dissociation constant (Kd) is 136 ± 39.8 nM.

B2: catalase 2 (CAT2), recombinant Arabidopsis thaliana, full-length (enzyme, UniProt P25819 1-492, looked up)
chain: T1 sequence (looked up) 1
modifications: labelled with Atto-488 (protein to dye 1:1) in MST and in the condensate imaging
notes: catalase 2 (CAT2), Arabidopsis thaliana, full-length recombinant protein; cloned into pET28b with NdeI and XhoI; pET28b with NdeI cloning would usually add an N-terminal His tag (surmise)
Turning to B2, the Kd in assay [3] is 2350 ± 279 nM.
